These results are taken from PMC3589417.

The target in the assay is 14-3-3ε (UniProt P62258). As to the kind of experiment: anti-FLAG co-IP of HA-TAK1, immunoblot. The following applies: reference: wild type. (In general: Immunoblotting shows a protein as a band on a membrane.)
Sequence of UniProt P62258 (P62258 whole entry, looked up): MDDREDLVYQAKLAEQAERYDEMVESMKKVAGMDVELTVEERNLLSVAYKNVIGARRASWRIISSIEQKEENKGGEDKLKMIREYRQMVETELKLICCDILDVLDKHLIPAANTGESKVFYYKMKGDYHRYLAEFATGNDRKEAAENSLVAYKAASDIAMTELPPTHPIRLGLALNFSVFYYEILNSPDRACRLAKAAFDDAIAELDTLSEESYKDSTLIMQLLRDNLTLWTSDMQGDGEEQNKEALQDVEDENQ

On to “TAK1 (MAP3K7) (from UniProt O43318-2) S192A”, for which the “binding against the reference” value (sites S192) is on record as “weaker”.

Regarding “TAK1 (MAP3K7) (from UniProt O43318-2) T184A”, the “binding against the reference” value (sites T184) was “weaker”.

As for “TAK1 (MAP3K7) (from UniProt O43318-2) T187A”, the “binding against the reference” value (sites T187) was “weaker”.
